Laboratory results reported in patent US20240324599A1, “PESTICIDAL ENZYMES FOR USE ON NEMATODES, INSECTS, AND MOLLUSKS” (priority 2023, published 2024).

Test system: soybean
Assay: Field trial: Geobacillus stearothermophilus esterase soybean seed treatment, yield
Type: in vivo
Conditions: text to Table 58; 0.5 fl oz/unit
Text: 0.5 fl oz/unit of Esterase (carboxylesterase) from Geobacillus/Bacillus stearothermophilus (SEQ ID NO:252) was coated onto soybean seeds treated with Evergol Energy (prothioconazole, metalaxyl, and penflufen fungicides) at 1 fl oz/cwt, Alias 4F (imidacloprid, insecticide) at 1.25 fl oz/unit, Sensient Red (colorant) at 0.5 fl oz/cwt, and Seedwork 4037L polymer at 1.5 fl oz/cwt. A control treatment without esterase enzyme was also created. The seed treated with esterase and control seed was planted in replicated trials distributed across 6 replicated plots with 4 replicates of 60 ft2 each at each site.

B1: Geobacillus stearothermophilus (a.k.a B. Stearothermophilus) Esterase (protein, listed as Bacillus stearothermophilus, listed as Geobacillus stearothermophilus)
chain: MKIVPPKPFFFEAGERAVLLLHGFTGNSADVRMLGRFLESKGYTCHAPIYKGHGVPPEELVHTGPDDWWQDVMNGYEFLKNKGYEKIAVAGLSLGGVFSLKLGYTVPIEGIVTMCAPMYIKSEETMYEGVLEYAREYKKREGKSEEQIEQEMEKFKQTPMKTLKALQELIADVRDHLDLIYAPTFVVQARHDEMINPDSANIIYNEIESPVKQIKWYEQSGHVITLDQEKDQLHEDIYAFLESLDW
  yield versus base seed treatment package, in words: increased the yield
